# From publication PMC4300183, “Cloning and Characterization of a Weissella confusa Dextransucrase and Its Application in High Fibre Baking” (PLoS ONE, 2015)
# B1: WcE392-rDSR (Wc392-rDSR; recombinant WcE392-DSR dextransucrase) (Weissella confusa) (protein)
# chain: DQLATQPAESAEVTQHETPTDSQAPDSVTSLSDTKETVQSSAASVDSSHVATSSASETTSSASETSTKTSSAASSVASSATMLSATSSASSSVDATITDGYHDEGGNWVYYRDGKKLTGRQLIDTFNVYFDEDGHQVKGDWRETDGKRAYYDGQEGRALTETQVVDGAVRGFDADGYEITNGFGQTSNQDTYYFDNDGNHVTGIQVIDGKTYNFDDQGRMLKGIATEVNGTMMYFDDQTGVATPTSDPKFNPELEPVPNQNAQHNAAHGTTPEDFDNMAGYLTADTWYRPNDILDNGETWRESTPTEYRPLIETWWPTKQTQADYVNYMNDALQVSTKTVSAADSEATLTAAADAIQAAIERQITVKQSTDWLRELMAAFVVTQPQWNKSSEDENDDHLQGGALSFENNPDTDANSDYRLMNRTPTNQTGERLYHIDDSLGGYELLLANDVDNSNPQVQAEQLNWLYYLMNFGSITANDPDANFDAIRVDAVDNVDADLLQLAAQYFRDAYGMATNDATSNQHLSILEDWSHNDPAYMNEHGNDQLTMDDYMHTQLIWSLTKSDAQRGKMDRFLDFYLTNRANDNTENEAQPSYSFVRAHDSEVQTVIAEIVTKLHPEAGNGLMPTQAQMDEAFKIYNADQKKAVKEYTHYNMPSAYAMLLTNKDVIPRVYYGDLYTDDGQYMATKSPYFDAIDAMLKARTKYVAGGQTMAVDKNDVLTSVRFGKGAMTASDAGTAETRTEGVGLIISNNHDLKMADSDQVVLHMGIAHANQAFRAVVMTTATGLAIYNDDNAPIRYTDANGDLIFTNADVYGVLNPQVSGFLAMWVPVGASATQDARTAASTEATTDGSAYHSNAALDSQVIFEGFSNFQAMPTTHDEYTNVVLAKHTDLLTDWSVTSVQLAPQYRSSTDGTFLDSIIQNGYAFTDRYDLGFGTPTKYGDDNDLRDVIKSLHANGIQVMADFVPDQLYALPGKELVQVTRTNNMGEPDKNSEIQHLMYVTSTRGGGEYQKQYGGEFLAKLRELYPDLFTTDQISTGKPIDDSVKIKEWSAKYLNGTAIQGRGAGYVLRDAGNNSYYRVTANTGNTNLPNQMLGKPVLTGFQKLADGYHFETLSGSAAKDAFIKDDNGELYYFDNNGVMATGEQKVRGGQYFFLPNGIALTDAFIETEDGHMRYYDKNGQLVVNQYVTDHQANAFRVDADGNVIRSQALTVDGNEQYFGSNGVQAKAQMVRDENGQAHYYAAGNGNMIKNQFILDTDGHWLYADQNGNLARGMTTLNQGTLYFDDQNHQVKDDFVYDADGVHYFNGTNGAEVKNDYAYHNGKWYYFDENGRMVTGLQTINGELRYFGADGAQLKGGQATNQKTNQTYVFDETNGSGKLVTI
# notes: secreted by Lactococcus lactis NZ9800 (pNZ8037), Ni-NTA purified; predicted mature 1381 residues, 152 kDa (~160 kDa on SDS-PAGE); precursor printed as 1432 residues, but 4272 bp ORF implies 1423
# Substrate: OC[C@H]1O[C@@](CO)(O[C@H]2O[C@H](CO)[C@@H](O)[C@H](O)[C@H]2O)[C@@H](O)[C@@H]1O
# Assay: purified protein
# Type: biochemical, Weissella confusa
# Details: 20 mM Na-acetate pH 5.4, 2 mM CaCl2, 35 °C, sucrose 3-146 mM, labelled compound
protein,measurement,value
B1,Km,14.7 ± 2.3 mM
same,Vmax,8.2 µmol/min/mg
same,kcat,23.2 ± 1.1 s⁻¹
same,kcat/Km,1600 ± 300 M⁻¹ s⁻¹
